B1: P. thracensis MukE as subunit of wild-type MukBEF (natural protein, Photorhabdus thracensis)
chain: MSSTHIEQFMPVKLAQALANSLFPELDSQLRAGRHIGIDDLDNHAFLMDFQEQLEEFYARYNVELIRAPEGFFYLRPRSTTLIPRSVLSELDMMVGKILCYLYLSPERLANQGIFTSQELYEELISLADEGKLMKFVNQRSSGSDLDKQKLQEKVRTTLNRLRRLGMVYFLPNNNNKFTITEAVFRFGADVRSGDDPREIQLRMIRDGEAMPVEGSLSLDDSENDETPDNSAEGAGDEQP
notes: Photorhabdus thracensis MukE; the MukE chain of m14; source: E. coli BL21-Gold(DE3), co-expressed as MukBEF from pFB403, purified
B2: T7 gp5.9, purified from insect cells (natural protein, bacteriophage T7)
chain: MSRDLVTIPRDVWNDIQGYIDSLERENDSLKNQLMEADEYVAELEEKLNGTS
notes: bacteriophage T7 gp5.9; histidine tag removed with 3C protease; Used as 'gp5.9 dimers' in SEC; source: Hi5 insect cells, purified (Talon, 3C cleavage, HisTrap, MonoQ)

How the values were obtained:
[1] = target: the molecule itself; test: cryo-EM structure; wild-type P. thracensis MukBEF dimers 150 nM with nicked plasmid pFB526 and 5 mM ATP, 10 mM MgCl2, pH 7.0, optionally with Na3VO4 or BeSO4/NaF; datasets pooled
[2] = target: the molecule itself; test: cryo-EM structure; E. coli MukEF 1 μM mixed with 4 μM gp5.9 in 20 mM Tris, 200 mM NaCl, 0.5 mM TCEP, 0.05 % β-octyl glucoside, pH 7.4, on ice

| Protein | stoichiometry N [1] | stoichiometry N [2] |
| --- | --- | --- |
| B1 | 2 | – |
| B2 | – | 2 |

Source: doi:10.1101/2024.10.02.616235, “Mechanism of DNA entrapment by the MukBEF SMC complex and its inhibition by a viral DNA mimic” (bioRxiv, 2024)
